Test results taken from article PMC11381880, “Action and cooperation in alginate degradation by three enzymes from the human gut bacterium Bacteroides eggerthii DSM 20697” (The Journal of Biological Chemistry, 2024).
Where “and” joins values, the source holds several entries; their conditions need not be identical. Equal entries are not always repeated.

Assays:
BeKdgF = biological target: T1, BeKdgF (Bacteroides eggerthii, UniProt A0A380Z821); experiment: loss of absorbance at […] nm, Michaelis-Menten fit, spontaneous conversion subtracted; assay type: biochemical; details: 50 mM HEPES, 150 mM NaCl, pH 7.0; 20 nM enzyme, no metal added; saturation not achieved (estimate); substrate made from polyM by BePL17
T1 construct: gene DW701_08695; no signal peptide; theoretical mass 14,137 Da; locus tag BACEGG_03250 inferred from gene order in PUL BACEGG_03245-03254 (PL17 = BACEGG_03249)
T1 sequence (A0A380Z821 1-114): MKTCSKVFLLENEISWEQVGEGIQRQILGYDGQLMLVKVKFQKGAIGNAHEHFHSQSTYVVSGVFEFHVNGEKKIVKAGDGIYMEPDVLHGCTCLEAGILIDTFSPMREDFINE

Asp102 = experiment: NMR; details: 25 °C; 25 mM NaCl; 20 mM HEPES (starting pH 7.2), pH adjusted with HCl/NaOH; Folded recombinant BeKdgF as purified, 0.26 mM, no substrate or ligand added; metal loading not given
Asp110 = experiment: NMR; details: 25 °C; 25 mM NaCl; 20 mM HEPES (starting pH 7.2), pH adjusted with HCl/NaOH; Folded recombinant BeKdgF as purified, 0.26 mM, no substrate or ligand added; metal loading not given
Asp21 = experiment: NMR; details: 25 °C; 25 mM NaCl; 20 mM HEPES (starting pH 7.2), pH adjusted with HCl/NaOH; Folded recombinant BeKdgF as purified, 0.26 mM, no substrate or ligand added; metal loading not given
Glu114 = experiment: NMR; details: 25 °C; 25 mM NaCl; 20 mM HEPES (starting pH 7.2), pH adjusted with HCl/NaOH; Folded recombinant BeKdgF as purified, 0.26 mM, no substrate or ligand added; metal loading not given
Glu13 = experiment: NMR; details: 25 °C; 25 mM NaCl; 20 mM HEPES (starting pH 7.2), pH adjusted with HCl/NaOH; Folded recombinant BeKdgF as purified, 0.26 mM, no substrate or ligand added; metal loading not given
Glu17 = experiment: NMR; details: 25 °C; 25 mM NaCl; 20 mM HEPES (starting pH 7.2), pH adjusted with HCl/NaOH; Folded recombinant BeKdgF as purified, 0.26 mM, no substrate or ligand added; metal loading not given
Glu66 = experiment: NMR; details: 25 °C; 25 mM NaCl; 20 mM HEPES (starting pH 7.2), pH adjusted with HCl/NaOH; Folded recombinant BeKdgF as purified, 0.26 mM, no substrate or ligand added; metal loading not given
[1] = biological target: BeKdgF, KdgF-like metalloprotein from Bacteroides eggerthii DSM 20697 (Bacteroides eggerthii DSM 20697); experiment: NMR 15N relaxation (rotational correlation time from T1/T2); 0.43 mM 13C-15N-labelled BeKdgF, 25 mM Na2HPO4 pH 7.2, 50 mM NaCl, 25 °C, 800 MHz
[2] = biological target: BeKdgF, KdgF-like metalloprotein from Bacteroides eggerthii DSM 20697 (Bacteroides eggerthii DSM 20697); experiment: SEC-MALS; BeKdgF at 1 mg/mL, 40 ul on Superdex 200 Increase 10/300 GL, 50 mM HEPES, 150 mM NaCl, pH 7.7, ice-cold buffer, 0.5 ml/min; DAWN8+ detector; equilibrium of tetramer and dimer
[3] = biological target: BePL17, PL17 subfamily 2 alginate lyase from Bacteroides eggerthii DSM 20697 (Bacteroides eggerthii DSM 20697); experiment: SEC; elution on HiLoad Superdex 200 pg 16/600; data not shown

4-deoxy-β-L-threo-hex-4-enopyranuronic acid [compound 1]
Km (BeKdgF): 1140 ± 560 µM

BeKdgF (KdgF-like cupin metalloprotein; annotated Unk3 in PULDB) (Bacteroides eggerthii DSM 20697)
pKa (Asp102): 5.9 ± 0.1
pKa (Asp110): 5.5±0.2
pKa (Asp21): 5.0±0.2
pKa (Glu114): 5.1±0.1 and 5.2±0.1
pKa (Glu13): 5.0 ± 0.2
pKa (Glu17): 4.9±0.1
pKa (Glu66): 5.6±0.1 and 5.1±0.2

BeKdgF, KdgF-like metalloprotein from Bacteroides eggerthii DSM 20697 (enzyme)
stoichiometry N [1]: 2
percent of the protein as dimer [2]: 93.5%
percent of the protein as tetramer [2]: 6.5%
stoichiometry N [2]: 4 and 2

BePL17, PL17 subfamily 2 alginate lyase from Bacteroides eggerthii DSM 20697 (enzyme)
stoichiometry N [3]: 2
